The target of the assay is CK2β (Homo sapiens, UniProt P67870). Description: ITC. On the technique in general: In ITC the heat of successive injections is recorded.
Sequence of CK2β (P67870 2-215): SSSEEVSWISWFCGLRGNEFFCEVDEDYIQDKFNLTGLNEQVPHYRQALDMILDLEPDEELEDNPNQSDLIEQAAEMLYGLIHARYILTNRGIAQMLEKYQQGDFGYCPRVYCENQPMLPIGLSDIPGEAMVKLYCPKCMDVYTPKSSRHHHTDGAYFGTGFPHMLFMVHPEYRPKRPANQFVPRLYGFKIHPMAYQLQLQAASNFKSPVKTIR

B1: CK2α (protein)
chain: MSGPVPSRARVYTDVNTHRPREYWDYESHVVEWGNQDDYQLVRKLGRGKYSEVFEAINITNNEKVVVKILKPVKKKKIKREIKILENLRGGPNIITLADIVKDPVSRTPALVFEHVNNTDFKQLYQTLTDYDIRFYMYEILKALDYCHSMGIMHRDVKPHNVMIDHEHRKLRLIDWGLAEFYHPGQEYNVRVASRYFKGPELLVDYQMYDYSLDMWSLGCMLASMIFRKEPFFHGHDNYDQLVRIAKVLGTEDLYDYIDKYNIELDPRFNDILGRHSRKRWERFVHSENQHLVSPEALDFLDKLLRYDHQSRLTAREAMEHPYFYTVVKDQARMGSSSMPGGSTPVSSANMMSGISSVPTPSPLGPLAGSPVIAAANPLGMPVPAAAGAQQ
As for B1, the dissociation constant (Kd) (commonly the constant that tells how readily two partners part at equilibrium) was 9 nM.

The values above are taken from article PMC6530537 (2019).
